B1: TCN-553 (5261_C18) (antibody, V domains shown)
VH: QVQVVQSGTEVKKPGSSVKVSCQTSGGRFMSYAITWVRQAPGQGLEWMGGIVPVFGTANYAQKFQGRVTITTDDSTRTAYMELSSLRSEDTAVYYCGFRYGSGYGFDSWGQGTLVTVSS
VL: EIVLTQSPGTLSLSPGERATLSCRASQSVSSSYLAWYQKKPGQAPRLLIYGASTRATGIPDRFTGSGSGTDFTLSISRLEPEDFAVYYCQHFGTSVFTFGGGTKVEIK
B2: TCN-552 (5249_I23) (antibody, V domains shown)
VH: QVQVVQSGAEVKKPGSSVRVSCQASGGTFMNYAIIWVRRAPGQGLEWMGGIIPVFPTPNYAQMFQGRVTISTDESRSTSFLELTNLRYEDTAVYYCARRIYHGGNSGFDFWGQGTLVTVSS
VL: EIVLTQSPATLSLSPGERATLSCRASQSVGNYLAWYQQKPGQAPRLLIYDSSNRAPGIPARFSGSGSGTDFTLTISSLAPEDFAVYYCQQRSKWPPMYSFGHGTKLEIK
B3: TCN-550 (5096_F06) (antibody, V domains shown)
VH: QVQLQESGPGLVKPSETLSLTCTVSGASINSHYWSWIRQPPGKGLEWIGYVYYSGSTTYNPSLKSRVTLSVDTSKNQFSLNLSSVTAADTAFYYCARHPYDVLTGSGDWFDPWGQGTLVTVSS
VL: SYVLTQAPSVSVAPGQTARITCGGNAIGSKKVHWYQHKAGQAPVLVVYDDTDRPSGIPERFSGSNSWSTATLTINRVEAGDEADYYCQVWDFTIDHVVFGGGTKLTVL
B4: TCN-534 (5249_B02) (antibody, V domains shown)
VH: QVQLVQSGAEVKKPGSSVKVSCRESGGTFNGYTITWVRQAPGQGLEWMGGIIPMMGTVNYAQKLQGRVTITTDYFTKTAYMDLNNLRSEDTAMYYCVKIRYTGQQLLWGQGTLVTVSS
VL: DIQMTQSPSTLSASIGDRVTITCRASQSIASWLAWYQQKPGKAPKLLIYEAVNLESGVPSRFSGSGSGTDFTLTISSLQPDDFATYFCQHYGTISQTFGGGTKVEIK
B5: TCN-539 (5056_A08) (antibody, V domains shown)
VH: QVQLVESGGGVVQPGRSLRLSCAASEITFITYAMHWVRQAPGKGLEWVALISDDGSNKFYADSVKGRFTISRDNSKNTLYLQMNSLRAEDTAAYYCAREGVYFDSGTYRGYFDYWGQETLVTVSS
VL: EIVLTQSPATLSLSPGERATLSCRASQSVSSYLAWYQQKPGQAPRLLIYDASNRATGIPARFSGSGSGTDFTLTISSLEPEDFAVYYCQQRSHWPPITFGQGTRLEIK
B6: TCN-540 (5060_F05) (antibody, V domains shown)
VH: QVQLVQSGGGVVQPGRSLRLSCAASGFTFSSYAMHWVRQAPGKGLEWVAIISYDGNDQYYTDSVKGRFTISRDSSKVYLQMHRLRPEDTAVYYCAKEFETSGYFHGSFDYWGQGILVTVSS
VL: QSALTQPASVSGSPGQSITISCTGTSSDVGGYNYVSWYQQHPGKAPKLLIYEVTNWPSGVSNRFSGSKSGNTASLTISGLQAEDEADYYCSSYAGSSTWVFGGGTRVTVL
B7: TCN-535 (5246_P19) (antibody, V domains shown)
VH: QVQLVQSGSEVKKPGTSVKVSCTASGSVFTNYGISWVRQAPGQGLEWMGGIIPLFGAAKYAQKFQGRVTITADESTKTVYMELSRLTSKDTAIYFCAKAPRVYEYYFDQWGQGTPVTVSS
VL: EIVLTQSPGTLSLSPGERATLSCRASQSVSSSQLAWYQQKPGQAPRLIIYGASTRATGIPDRFSGSGSGTDFTLTIGRLEPEDFAVFFCQQYSTSPPTFGQGTKVDFK
B8: TCN-538 (3206_O17) (antibody, V domains shown)
VH: QITLKESGPTLVKPTQTLTLTCVFSGFSLSITGVRVGWIRQPPGKALEWLALISWDDEKHYSPSLQSRLTITKDTSKNQVVLTMTNLDPVDTATYYCARSTDRGHVLRYFGWMLPGDAFDVWGQGTMVTVSS
VL: DIVMTQSPDFLPVSLGERATINCKSSQRVLYSSNNKNYLAWYQLKPGQPPKLIIYWASTRESGVPDRFSGSGSGTEFTLTISSLQAEDVAVYYCQQYYSRPYTFGQGTKLEIK
B9: TCN-543 (5081_G23) (antibody, V domains shown)
VH: QVHLVQSGAEVRKPGDSVKVSCKTSGYTFSTYPVAWVRQVPGQGLEWMGWISTYNGNTNFAQNFQGRVTLTTDTTTNTAYMEVRSLKFDDTAVYYCARVEGSYRDFWNNQNRFDPWGQGTLVTVSS
VL: SYVLTQPPSVSVAPGQTARISCGGSNIGGKSVHWYQQKPGQAPVLVVYDDSGRPSGIPERFSGSNSGDTATLTISRVEAGDEADYFCQVWDNFGGVFGTGTKVTVL
B10: TCN-536 (5095_N01) (antibody, V domains shown)
VH: QVQLQQWGAGLLKPSETLSLTCAVYGGSFSVSGYYWSWIRQPPGRGLEWIGEISHGGSTNYNPSLKSRVTISVDTTKNQFSLRLSSVTAADTAVYYCARGTDPDTEVYCRVGNCAAFDYWGQGSLVTVSS
VL: EIILAQSPGTLSLSPGERATLSCRASQFVSTRSLAWYQQRPGQAPRLLIYGASSRATGIPDRFSGSGSGTDFTLTISRLEPEDFAVYYCQHYGYSPRYAFGQGSKVEIK
B11: TCN-546 (5089_L08) (antibody, V domains shown)
VH: QVQLQQWGAGLLKPSETLSLTCGVYGGSLSDYYWSWIRQPPGKGLEWIGEINHSGGTNYNPSLKRRVTISVDTSKKQFSLKMNSVTAADTAVYYCARGTDPDTEVYCRAGNCAAFDFWGQGTLVTVSS
VL: EIVLTQSPGTLSLSPGERATLSCRASHFVIGRAVAWYQQKPGQAPRLLIYGASSRATGIPDRFSGSGSGTDFTLTISRLETEDFAVFYCQHYGSSPRYAFGQGTKLEIK

Target: recombinant soluble homotrimeric HA, A/chicken/Vietnam/NCVD-016/08 H5N1 (Influenza A virus A/chicken/Vietnam/NCVD-016/2008(H5N1))
Test: microarray, transfection SN IgG, trimeric HA
Conditions: remark: other sources report otherwise

Binder	Trimeric HA Binding: RLU [RLU]
B1	34700
B2	34500
B3	1800

Target: recombinant soluble homotrimeric HA, A/California/4/09 H1N1 (Influenza A virus A/California/04/2009(H1N1))
Test: microarray, transfection SN IgG, trimeric HA
Conditions: remark: other sources report otherwise

Binder	Trimeric HA Binding: RLU [RLU]
B1	23300
B2	23500
B3	628

Target: recombinant soluble homotrimeric HA, A/Vietnam/1203/04 H5N1 (Influenza A virus A/VietNam/1203/2004(H5N1))
Test: microarray, transfection SN IgG, trimeric HA
Conditions: remark: other sources report otherwise

Binder	Trimeric HA Binding: RLU [RLU]
B1	19200
B2	18500
B3	41900

Target: recombinant soluble homotrimeric HA, A/Japan/305/57 H2N2 (Influenza A virus A/Japan/305/1957(H2N2))
Test: microarray, transfection SN IgG, trimeric HA
Conditions: remark: other sources report otherwise

Binder	Trimeric HA Binding: RLU [RLU]
B1	39800
B2	52000
B3	731

Target: recombinant soluble homotrimeric HA, A/South Carolina/1/18 H1N1 (Influenza A virus A/South Carolina/1/18 (H1N1))
Test: microarray, transfection SN IgG, trimeric HA
Conditions: remark: other sources report otherwise

Binder	Trimeric HA Binding: RLU [RLU]
B1	41300
B2	37400
B3	1010

Target: recombinant soluble homotrimeric HA, A/Hong Kong/156/97 H5N1 (Influenza A virus A/Hong Kong/156/97 (H5N1))
Test: microarray, transfection SN IgG, trimeric HA
Conditions: remark: other sources report otherwise

Binder	Trimeric HA Binding: RLU [RLU]
B1	36300
B2	36300
B3	955

Target: recombinant soluble homotrimeric HA, A/Anhui/1/05 H5N1 (Influenza A virus A/Anhui/1/2005(H5N1))
Test: microarray, transfection SN IgG, trimeric HA
Conditions: remark: other sources report otherwise

Binder	Trimeric HA Binding: RLU [RLU]
B1	8550
B2	9010
B3	7680

Target: recombinant soluble homotrimeric HA, A/northern shoveler/California/HKWF115/07 H6N4 (Influenza A virus A/northern shoveler/California/HKWF115/2007(H6N1))
Test: microarray, transfection SN IgG, trimeric HA
Conditions: remark: other sources report otherwise

Binder	Trimeric HA Binding: RLU [RLU]
B1	32500
B2	43900
B3	2300

Target: recombinant soluble homotrimeric HA, A/Egypt/3300-NAMRU3/08 H5N1 (Influenza A virus A/Egypt/3300-NAMRU3/2008(H5N1))
Test: microarray, transfection SN IgG, trimeric HA
Conditions: remark: other sources report otherwise

Binder	Trimeric HA Binding: RLU [RLU]
B1	19500
B2	21200
B3	26800

Target: recombinant soluble homotrimeric HA, A/Indonesia/5/05 H5N1 (Influenza A virus A/Indonesia/5/2005(H5N1))
Test: microarray, transfection SN IgG, trimeric HA
Conditions: remark: other sources report otherwise

Binder	Trimeric HA Binding: RLU [RLU]
B1	31200
B2	43400
B3	9000

Target: recombinant soluble homotrimeric HA, A/Solomon Islands/3/06 H1N1 (Influenza A virus A/Solomon Islands/3/2006(H1N1))
Test: microarray, transfection SN IgG, trimeric HA
Conditions: remark: other sources report otherwise

Binder	Trimeric HA Binding: RLU [RLU]
B1	49600
B2	48600
B3	758

Target: recombinant soluble homotrimeric HA, A/Wisconsin/67/05 H3N2 (Influenza A virus A/Wisconsin/67/2005(H3N2))
Test: microarray, transfection SN IgG, trimeric HA
Conditions: remark: other sources report otherwise

Binder	Trimeric HA Binding: RLU [RLU]
B1	25200
B2	18500
B3	37800

Target: recombinant soluble homotrimeric HA, A/duck/Yangzhou/02/05 H8N4 (Influenza A virus A/duck/Yangzhou/02/2005(H8N4))
Test: microarray, transfection SN IgG, trimeric HA
Conditions: remark: other sources report otherwise

Binder	Trimeric HA Binding: RLU [RLU]
B1	12500
B2	15900
B3	4710

Target: recombinant soluble homotrimeric HA of A/Egypt/3300-NAMRU3/08 (H5N1) (Influenza A virus A/Egypt/3300-NAMRU3/2008(H5N1))
Test: HA microarray, BCC supernatant
Conditions: remark: other sources report otherwise

Binder	Trimeric HA Binding: RLU [RLU]
B1	18800
B4	41400
B5	11400
B2	40000
B6	1970
B7	39400
B8	23600

Target: recombinant homotrimeric HA A/swine/Ontario/01911-2/99 H4N6 (Influenza A virus A/Swine/Ontario/01911-2/99 (H4N6))
Test: protein microarray, purified IgG, trimeric HA
Conditions: remark: other sources report otherwise

Binder	Trimeric HA Binding: RLU [RLU]
B9	169
B10	126
B6	138

Target: recombinant homotrimeric HA A/duck/Yangzhou/02/05 H8N4 (Influenza A virus A/duck/Yangzhou/02/2005(H8N4))
Test: protein microarray, purified IgG, trimeric HA
Conditions: remark: other sources report otherwise

Binder	Trimeric HA Binding: RLU [RLU]
B9	119
B5	124
B10	251
B6	318
B11	211
B3	256
